{"source": "paper PMC8011160", "assay_in_all_cases": "ELISA; host protein coated on microtiter wells; recombinant protein varied from 0 to 2 μM; absorbance with BSA subtracted; apparent Kd from the half-maximal binding concentration (GraphPad Prism 6)", "key": {"[1]": {"biological_target": "plasma fibronectin (purified from human plasma) (human)"}, "[2]": {"biological_target": "plasminogen (purified from human plasma) (human)"}, "[3]": {"biological_target": "collagen Type IV (purified from basement membrane of Engelbreth-Holm-Swarm mouse sarcoma) (mouse) (UniProt P02463)"}, "[4]": {"biological_target": "fibrinogen (purified from human plasma) (human) (UniProt P02671)", "sequence (P02671 other isoform, or with tags, fused parts or gaps, chain 1 of 3)": "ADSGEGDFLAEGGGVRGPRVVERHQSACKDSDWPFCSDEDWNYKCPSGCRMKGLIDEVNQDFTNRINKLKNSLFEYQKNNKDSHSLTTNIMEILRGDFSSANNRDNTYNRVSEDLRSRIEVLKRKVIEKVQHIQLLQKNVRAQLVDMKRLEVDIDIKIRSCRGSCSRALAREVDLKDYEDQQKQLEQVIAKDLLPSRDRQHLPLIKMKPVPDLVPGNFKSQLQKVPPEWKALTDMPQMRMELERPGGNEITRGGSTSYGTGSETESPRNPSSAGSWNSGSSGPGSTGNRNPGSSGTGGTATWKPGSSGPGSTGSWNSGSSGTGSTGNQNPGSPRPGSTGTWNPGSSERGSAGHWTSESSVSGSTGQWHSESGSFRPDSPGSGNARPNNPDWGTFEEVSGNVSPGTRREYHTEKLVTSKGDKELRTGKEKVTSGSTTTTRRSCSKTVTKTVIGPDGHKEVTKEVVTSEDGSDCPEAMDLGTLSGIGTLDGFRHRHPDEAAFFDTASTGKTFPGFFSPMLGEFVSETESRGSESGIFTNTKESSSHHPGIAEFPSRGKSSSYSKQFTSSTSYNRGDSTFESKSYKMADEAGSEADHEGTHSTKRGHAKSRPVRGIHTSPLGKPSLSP", "sequence (P02675 31-491, chain 2 of 3, further chain)": "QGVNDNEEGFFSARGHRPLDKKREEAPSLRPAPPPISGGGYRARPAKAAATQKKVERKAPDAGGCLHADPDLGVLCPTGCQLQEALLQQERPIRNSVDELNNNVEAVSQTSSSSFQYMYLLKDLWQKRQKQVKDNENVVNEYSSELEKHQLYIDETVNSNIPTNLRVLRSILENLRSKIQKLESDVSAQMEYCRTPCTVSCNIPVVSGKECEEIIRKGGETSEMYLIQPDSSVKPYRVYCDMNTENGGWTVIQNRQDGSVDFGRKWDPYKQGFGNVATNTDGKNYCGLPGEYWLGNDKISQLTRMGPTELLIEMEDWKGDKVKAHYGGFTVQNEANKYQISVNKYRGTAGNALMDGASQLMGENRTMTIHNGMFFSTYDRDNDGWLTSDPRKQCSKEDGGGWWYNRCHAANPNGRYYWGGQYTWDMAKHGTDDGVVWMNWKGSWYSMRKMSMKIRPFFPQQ", "sequence (P02679 other isoform, or with tags, fused parts or gaps, chain 3 of 3, further chain)": "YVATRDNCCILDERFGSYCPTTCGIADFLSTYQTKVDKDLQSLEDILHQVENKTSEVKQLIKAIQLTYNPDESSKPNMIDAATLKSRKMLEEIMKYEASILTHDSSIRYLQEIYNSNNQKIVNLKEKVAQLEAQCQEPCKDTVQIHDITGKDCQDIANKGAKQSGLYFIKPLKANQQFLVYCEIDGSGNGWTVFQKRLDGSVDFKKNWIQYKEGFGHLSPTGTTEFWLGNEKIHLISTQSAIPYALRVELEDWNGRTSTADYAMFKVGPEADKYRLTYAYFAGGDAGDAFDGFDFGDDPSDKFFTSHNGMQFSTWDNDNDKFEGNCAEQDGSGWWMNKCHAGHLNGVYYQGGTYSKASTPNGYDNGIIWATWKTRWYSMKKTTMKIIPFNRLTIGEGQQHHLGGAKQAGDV"}, "[5]": {"biological_target": "laminin (purified from basement membrane of Engelbreth-Holm-Swarm mouse sarcoma) (mouse) (UniProt P19137)"}, "[6]": {"biological_target": "collagen Type I (purified from rat tail) (rat) (UniProt P02454)", "sequence (P02454 152-1207, chain 1 of 2)": "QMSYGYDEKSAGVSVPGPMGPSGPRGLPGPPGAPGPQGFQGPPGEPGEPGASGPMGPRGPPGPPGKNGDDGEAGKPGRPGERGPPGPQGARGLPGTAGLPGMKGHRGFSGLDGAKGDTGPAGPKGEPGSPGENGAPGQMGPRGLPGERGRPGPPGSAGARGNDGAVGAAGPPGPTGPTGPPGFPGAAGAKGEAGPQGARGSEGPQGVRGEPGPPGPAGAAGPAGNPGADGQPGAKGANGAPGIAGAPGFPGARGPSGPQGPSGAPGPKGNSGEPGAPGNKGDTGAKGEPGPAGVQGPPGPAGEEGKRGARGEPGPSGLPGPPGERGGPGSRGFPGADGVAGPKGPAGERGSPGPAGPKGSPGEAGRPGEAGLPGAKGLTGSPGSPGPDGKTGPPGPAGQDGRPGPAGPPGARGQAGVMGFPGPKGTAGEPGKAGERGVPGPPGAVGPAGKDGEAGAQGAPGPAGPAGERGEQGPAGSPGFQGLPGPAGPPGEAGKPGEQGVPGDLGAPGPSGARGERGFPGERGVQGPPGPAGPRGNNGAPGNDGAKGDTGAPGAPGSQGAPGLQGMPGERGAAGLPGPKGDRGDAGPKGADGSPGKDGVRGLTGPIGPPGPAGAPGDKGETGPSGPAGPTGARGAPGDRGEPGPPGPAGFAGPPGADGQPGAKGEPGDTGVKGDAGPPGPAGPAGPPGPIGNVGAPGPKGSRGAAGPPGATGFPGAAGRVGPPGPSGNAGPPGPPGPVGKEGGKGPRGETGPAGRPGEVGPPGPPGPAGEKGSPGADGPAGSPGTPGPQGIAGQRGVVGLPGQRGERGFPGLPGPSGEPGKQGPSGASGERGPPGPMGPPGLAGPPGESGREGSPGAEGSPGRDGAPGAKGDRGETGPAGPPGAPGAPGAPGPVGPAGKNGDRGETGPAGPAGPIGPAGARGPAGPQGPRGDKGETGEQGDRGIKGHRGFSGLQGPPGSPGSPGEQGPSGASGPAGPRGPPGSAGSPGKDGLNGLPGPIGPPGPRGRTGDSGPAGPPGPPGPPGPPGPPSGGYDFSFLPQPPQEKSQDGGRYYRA", "sequence (P02466 86-1125, chain 2 of 2, further chain)": "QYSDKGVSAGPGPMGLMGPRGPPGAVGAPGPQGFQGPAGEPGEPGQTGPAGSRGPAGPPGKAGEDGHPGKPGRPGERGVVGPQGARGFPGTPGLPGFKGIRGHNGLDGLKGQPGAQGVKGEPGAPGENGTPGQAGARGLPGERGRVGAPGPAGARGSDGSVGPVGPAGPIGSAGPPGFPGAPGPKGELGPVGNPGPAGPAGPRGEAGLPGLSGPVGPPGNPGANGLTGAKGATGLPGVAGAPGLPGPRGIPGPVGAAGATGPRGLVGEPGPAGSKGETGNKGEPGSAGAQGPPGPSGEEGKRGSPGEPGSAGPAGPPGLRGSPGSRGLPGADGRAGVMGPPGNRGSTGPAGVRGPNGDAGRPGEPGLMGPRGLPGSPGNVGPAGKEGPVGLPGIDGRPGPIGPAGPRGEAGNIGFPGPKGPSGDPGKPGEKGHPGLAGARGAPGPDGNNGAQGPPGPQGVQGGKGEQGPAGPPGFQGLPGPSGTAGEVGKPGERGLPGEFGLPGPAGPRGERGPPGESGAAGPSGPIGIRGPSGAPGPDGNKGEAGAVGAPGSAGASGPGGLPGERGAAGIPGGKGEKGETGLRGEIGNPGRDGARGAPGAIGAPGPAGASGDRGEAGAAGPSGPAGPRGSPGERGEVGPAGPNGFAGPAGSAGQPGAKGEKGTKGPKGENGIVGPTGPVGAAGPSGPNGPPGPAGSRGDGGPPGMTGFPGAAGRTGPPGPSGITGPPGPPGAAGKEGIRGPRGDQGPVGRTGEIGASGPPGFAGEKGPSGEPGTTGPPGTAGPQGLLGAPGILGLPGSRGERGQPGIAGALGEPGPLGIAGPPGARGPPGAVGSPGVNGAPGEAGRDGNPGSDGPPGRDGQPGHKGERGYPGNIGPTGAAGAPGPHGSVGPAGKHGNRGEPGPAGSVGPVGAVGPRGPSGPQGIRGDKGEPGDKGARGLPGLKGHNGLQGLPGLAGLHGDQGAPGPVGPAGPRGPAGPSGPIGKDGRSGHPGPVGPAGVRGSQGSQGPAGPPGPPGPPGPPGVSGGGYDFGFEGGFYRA"}, "[7]": {"biological_target": "elastin (purified from bovine neck ligament) (bovine) (UniProt P04985)", "sequence (P04985 27-747)": "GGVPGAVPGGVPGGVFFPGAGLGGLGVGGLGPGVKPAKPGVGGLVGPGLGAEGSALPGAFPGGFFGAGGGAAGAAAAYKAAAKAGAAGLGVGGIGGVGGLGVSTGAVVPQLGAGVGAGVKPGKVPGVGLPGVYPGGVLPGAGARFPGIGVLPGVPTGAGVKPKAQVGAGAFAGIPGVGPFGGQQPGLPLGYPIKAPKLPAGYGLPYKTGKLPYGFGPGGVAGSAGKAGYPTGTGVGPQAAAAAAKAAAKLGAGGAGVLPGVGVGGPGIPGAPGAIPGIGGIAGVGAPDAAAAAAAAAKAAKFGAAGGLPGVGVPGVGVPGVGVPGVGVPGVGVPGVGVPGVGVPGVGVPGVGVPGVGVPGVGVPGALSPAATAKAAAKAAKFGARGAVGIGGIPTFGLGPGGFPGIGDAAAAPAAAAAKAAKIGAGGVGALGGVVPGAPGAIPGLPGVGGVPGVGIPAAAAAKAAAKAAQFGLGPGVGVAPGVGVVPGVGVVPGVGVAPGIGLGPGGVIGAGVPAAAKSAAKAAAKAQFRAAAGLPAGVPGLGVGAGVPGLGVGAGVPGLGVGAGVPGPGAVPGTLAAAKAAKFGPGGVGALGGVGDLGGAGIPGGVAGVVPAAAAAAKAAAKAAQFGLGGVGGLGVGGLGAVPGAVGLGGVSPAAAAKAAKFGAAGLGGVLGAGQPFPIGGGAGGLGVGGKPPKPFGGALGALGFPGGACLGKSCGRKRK"}}, "note": "Several values for one entry are separate records, joined by “and”; a condition that tells them apart may be missing. Equal entries are not always repeated."}
{"substance": "GroEL protein of Leptospira interrogans (recombinant, His-tagged) (from UniProt P61438 1-546) (natural protein)", "values": [{"measurement": "Kd", "setting": "[1]", "value": "34 nM and 10 nM"}, {"measurement": "Kd", "setting": "[2]", "value": 31, "unit": "nM"}]}
{"substance": "truncated form of leptospiral immunoglobulin-like protein B (LigBC, amino acids 631-1156) (from UniProt Q72V39 631-1156) (domain or fragment)", "values": [{"measurement": "Kd", "setting": "[1]", "value": "15 nM and 6 nM"}, {"measurement": "Kd", "setting": "[2]", "value": 5, "unit": "nM"}]}
{"substance": "leptospiral protein 25 (Lp25) (natural protein)", "values": [{"measurement": "Kd", "setting": "[1]", "value": "5370 nM and 6370 nM"}, {"measurement": "Kd", "setting": "[3]", "value": 2420, "unit": "nM"}, {"measurement": "Kd", "setting": "[2]", "value": 4430, "unit": "nM"}, {"measurement": "Kd", "setting": "[4]", "value": 606, "unit": "nM"}, {"measurement": "Kd", "setting": "[5]", "value": 1140, "unit": "nM"}, {"measurement": "Kd", "setting": "[6]", "value": 699, "unit": "nM"}, {"measurement": "Kd", "setting": "[7]", "value": 606, "unit": "nM"}]}
